Data published in paper PMC4385751.

Experiments:
[1] = molecular target: Commercial CD62L from R&D systems, Inc. (human) (UniProt P14151); experiment: SPR
[2] = molecular target: Recombinant soluble human CD62L N104E mutant (residues 1-194, C-terminal six-histidine tag) (human) (UniProt P14151); experiment: SPR

## type III porcine submaxillary mucin (PSM-III) (natural protein)
[1]
  Kd: 27 µM
[2]
  Kd: 44 µM
